Conditions: Escherichia coli (strain K12), CD, reversible: yes, whole UniProt chain shown; for Tm: Thermal; for denaturant midpoint (higher = more stable) / unfolding free energy: 25 °C, GdnHCl

B1: Ribonuclease HI wild type, P0A7Y4 (protein)
chain: MLKQVEIFTDGSCLGNPGPGGYGAILRYRGREKTFSAGYTRTTNNRMELMAAIVALEALKEHCEVILSTDSQYVRQGITQWIHNWKKRGWKTADKKPVKNVDLWQRLDAALGQHQIKWEWVKGHAGHPENERCDELARAAAMNPTLEDTGYQVEV
pH 3, glycine-HCl 10 mM
  Tm: 49.4 °C
pH 5.5, Sodium acetate 20 mM
  denaturant midpoint (higher = more stable): 1.79 M
  unfolding free energy: 9.21 kcal/mol
  Tm: 52.7 °C
pH 7.8, Sodium phosphate 20 mM
  Tm: 50.2 °C
pH 8.2, Tris-HCl 20 mM
  denaturant midpoint (higher = more stable): 1.65 M
  unfolding free energy: 8.49 kcal/mol
